Laboratory results reported in article PMC3864954.

What was measured:
Assay in all cases: ELISA; APP fragment (12.2 nM, 50 µL/well) plated at 4°C overnight; p75^NTR ECD-Fc or IgG-Fc added at the indicated concentrations for 2 h at room temperature; detected by anti-human IgG-Fc; EC50 from sigmoid dose-response curve
[1] = biological target: sAPPβ, recombinant, His-tagged
[2] = biological target: Soluble β-amyloid Precursor Protein Alpha (sAPPα), recombinant, His-tagged (UniProt P05067)
[3] = biological target: C-sAPPα (sAPPα 304–612), recombinant, His-tagged (UniProt P05067)

- EC50 [1]: 120 nM
- EC50 [2]: 90 nM
- EC50 [3]: 150 nM
Substance: recombinant p75^NTR extracellular domain fused to human Fc (p75^NTR ECD-Fc) chimera protein (from UniProt P08138 29-250) (Fc fusion)
